# Results as given in article PMC9352529.
# Assays:
# [1] = molecular target: FLAG-tagged EMC6 N22A (human) (human) (UniProt Q9BV81); assay: co-IP; HEK293T cells stably expressing α1β2γ2 GABAA receptors, transiently transfected with FLAG-tagged EMC3 variants, or with FLAG-tagged EMC5 and EMC6 variants; lysate (50 mM Tris pH 7.5, 150 mM NaCl, 2 mM DDM) on anti-FLAG M2 magnetic beads overnight at 4°C; blot for α1 and FLAG; band intensity of α1 over FLAG
# [2] = molecular target: FLAG-tagged EMC6 D27A (human) (human) (UniProt Q9BV81); assay: as above
# [3] = molecular target: FLAG-tagged EMC3 R180A (human) (human) (UniProt Q9P0I2); assay: as above
# [4] = molecular target: FLAG-tagged EMC3 R31A (human) (human) (UniProt Q9P0I2); assay: as above
# [5] = molecular target: human GABAA receptor α1 subunit (HEK293T cells stably expressing α1β2γ2) (human); assay: co-IP; HEK293T cells stably expressing α1β2γ2 GABAA receptors, treated with non-targeting siRNA or siRNAs against both EMC3 and EMC6 for 48 h; lysate incubated with anti-α1 antibody; blot for SEC61α and α1
"α1 band intensity over FLAG-tagged EMC6 after IP, relative to WT EMC6 (relative to WT EMC6) [1]","α1 band intensity over FLAG-tagged EMC6 after IP, relative to WT EMC6 (relative to WT EMC6) [2]","normalized α1 intensity over FLAG after IP, relative to WT EMC3 (relative to WT EMC3) [3]","normalized α1 intensity over FLAG after IP, relative to WT EMC3 (relative to WT EMC3) [4]","normalized SEC61α over α1 intensity after IP, knock-down of both EMC3 and EMC6 against non-targeting siRNA [5] [fold]",Substance
0.55,0.72,0.4,0.48,,human GABAA receptor α1 subunit (HEK293T cells stably expressing α1β2γ2) (natural protein)
,,,,5.3,"SEC61α (endogenous, HEK293T) (from UniProt P61619 1-476) (natural protein)"
